{"source": "patent US20230242658A1", "key": {"[1]": {"target": "human 4-1BB on CHO-K1 cells (human) (UniProt Q07011)", "sequence (Q07011 24-255)": "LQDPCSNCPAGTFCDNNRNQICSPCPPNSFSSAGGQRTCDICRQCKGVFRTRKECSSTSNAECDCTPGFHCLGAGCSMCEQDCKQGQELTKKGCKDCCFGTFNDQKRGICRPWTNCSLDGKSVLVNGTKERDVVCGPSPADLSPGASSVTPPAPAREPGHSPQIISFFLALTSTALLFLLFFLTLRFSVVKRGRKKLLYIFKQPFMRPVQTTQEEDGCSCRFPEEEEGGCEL", "assay": "FACS; FIG. 11I"}, "[2]": {"target": "human 4-1BB on CHO-K1 cells (human) (UniProt Q07011)", "assay": "FACS; FIG. 25E"}, "[3]": {"target": "human 4-1BB on CHO-K1 cells (human) (UniProt Q07011)", "assay": "FACS; FIG. 25C"}, "[4]": {"target": "human 4-1BB on CHO-K1 cells (human) (UniProt Q07011)", "assay": "FACS; FIG. 25B"}, "[5]": {"target": "human 4-1BB on CHO-K1 cells (human) (UniProt Q07011)", "assay": "FACS; FIG. 11J"}, "[6]": {"target": "human 4-1BB on CHO-K1 cells (human) (UniProt Q07011)", "assay": "FACS blocking of 4-1BBL; FIG. 14F"}, "[7]": {"target": "human 4-1BB on CHO-K1 cells (human) (UniProt Q07011)", "assay": "FACS blocking of 4-1BBL; FIG. 14H"}, "[8]": {"target": "human 4-1BB on CHO-K1 cells (human) (UniProt Q07011)", "assay": "FACS; FIG. 11H"}, "[9]": {"target": "human 4-1BB on CHO-K1 cells (human) (UniProt Q07011)", "assay": "FACS blocking of 4-1BBL; FIG. 14G"}, "[10]": {"target": "human 4-1BB on CHO-K1 cells (human) (UniProt Q07011)", "assay": "FACS; FIG. 25D"}, "[11]": {"target": "human 4-1BB on CHO-K1 cells (human) (UniProt Q07011)", "assay": "FACS; FIG. 25A"}}, "data": [{"substance": "Urelumab", "values": [{"measurement": "EC50", "setting": "[1]", "value": 0.712, "unit": "nM"}, {"measurement": "EC50", "setting": "[2]", "value": 0.235, "unit": "nM"}, {"measurement": "EC50", "setting": "[3]", "value": 0.519, "unit": "nM"}, {"measurement": "EC50", "setting": "[4]", "value": 0.347, "unit": "nM"}, {"measurement": "EC50", "setting": "[5]", "value": 0.486, "unit": "nM"}, {"measurement": "IC50", "setting": "[6]", "value": 1.27, "unit": "nM"}, {"measurement": "IC50", "setting": "[7]", "value": 0.232, "unit": "nM"}, {"measurement": "EC50", "setting": "[8]", "value": 0.683, "unit": "nM"}, {"measurement": "IC50", "setting": "[9]", "value": 0.447, "unit": "nM"}, {"measurement": "EC50", "setting": "[10]", "value": 0.653, "unit": "nM"}, {"measurement": "EC50", "setting": "[11]", "value": 1.01, "unit": "nM"}]}]}
